Reference: patent US20240109955A1

Experiments:
Assay in all cases: cell-based or functional assay
[1] = molecular target: SARS-CoV-2 spike (S) protein, Omicron variant BA.2 (SARS-CoV-2) (UniProt P0DTC2)
[2] = molecular target: SARS-CoV-2 spike (S) protein, Omicron variant BA.2.12.1 (SARS-CoV-2) (UniProt P0DTC2)
[3] = molecular target: SARS-CoV-2 spike (S) protein, Omicron variant BA.1 (SARS-CoV-2) (UniProt P0DTC2)
[4] = molecular target: SARS-CoV-2 spike protein, Omicron sublineage BA.4.6 (R346T, F486V) (SARS-CoV-2) (UniProt P0DTC2)
[5] = molecular target: SARS-CoV-2 spike protein, Omicron sublineage BA.4.7 (R346S, F486V) (SARS-CoV-2) (UniProt P0DTC2)
[6] = molecular target: SARS-CoV-2 spike protein, Omicron sublineage BF.7 (R346T, F486V) (SARS-CoV-2) (UniProt P0DTC2)
[7] = molecular target: SARS-CoV-2 spike protein, Omicron sublineage BA.1.1 (R346K) (SARS-CoV-2) (UniProt P0DTC2)
[8] = molecular target: SARS-CoV-2 spike protein, Omicron sublineage BQ.1.1 (R346T, K444T, F486V) (SARS-CoV-2) (UniProt P0DTC2)
[9] = molecular target: SARS-CoV-2 spike protein, Omicron variant (B.1.1.529) (SARS-CoV-2) (UniProt P0DTC2)
[10] = molecular target: SARS-CoV-2 spike (S) protein, Mu variant (B.1.621) (SARS-CoV-2) (UniProt P0DTC2)
[11] = molecular target: SARS-CoV-2 spike protein, Alpha variant (B.1.1.7) (SARS-CoV-2)
[12] = molecular target: SARS-CoV-2 spike (S) protein, Omicron variant BA.4/5 (SARS-CoV-2) (UniProt P0DTC2)
[13] = molecular target: SARS-CoV-2 spike protein, Gamma variant (P.1) (SARS-CoV-2)
[14] = molecular target: SARS-CoV-2 spike protein, Beta variant 1 (B.1.351.v1) (SARS-CoV-2)
[15] = molecular target: SARS-CoV-2 spike (S) protein, C.1.2 variant (SARS-CoV-2) (UniProt P0DTC2)
[16] = molecular target: SARS-CoV-2 spike protein, Delta variant (B.1.617.2) (SARS-CoV-2)
[17] = molecular target: SARS-CoV-2 spike protein, Iota variant (B.1.526) (SARS-CoV-2)
[18] = molecular target: SARS-CoV-2 spike protein, Beta variant 1 (B.1.351 v1) (SARS-CoV-2)
[19] = molecular target: SARS-CoV-2 spike protein, Mu variant (B.1.621) (SARS-CoV-2)
[20] = molecular target: SARS-CoV-2 spike protein, Delta variant (AY.1) (SARS-CoV-2)
[21] = molecular target: SARS-CoV-2 spike protein, Kappa variant (B.1.617.1) (SARS-CoV-2)
[22] = molecular target: SARS-CoV-2 spike protein, Lambda variant (C.37) (SARS-CoV-2)
[23] = molecular target: SARS-CoV-2 spike protein, C.1.2 variant (SARS-CoV-2)
[24] = molecular target: SARS-CoV-2 spike (S) protein, Omicron sublineage BA.4.7 (R346S, F486V) (SARS-CoV-2) (UniProt P0DTC2)
[25] = molecular target: SARS-CoV-2 Omicron BA.4.6 spike protein (R346T, F486V) (SARS-CoV-2) (UniProt P0DTC2)
[26] = molecular target: SARS-CoV-2 spike (S) protein, Omicron sublineage BA.4.6 (R346T, F486V) (SARS-CoV-2) (UniProt P0DTC2)
[27] = molecular target: SARS-CoV-2 spike (S) protein, Omicron sublineage BQ 1.1 (R346T, K444T, F486V) (SARS-CoV-2) (UniProt P0DTC2)
[28] = molecular target: SARS-CoV-2 spike (S) protein, Omicron sublineage BF.7 (R346T, F486V) (SARS-CoV-2) (UniProt P0DTC2)
[29] = molecular target: SARS-CoV-2 spike (S) protein, Omicron sublineage BA.1.1 (R346K) (SARS-CoV-2) (UniProt P0DTC2)

Sequence of MX413 (A19-61 x A23-58H/B1-182L) (bispecific antibody) (chain): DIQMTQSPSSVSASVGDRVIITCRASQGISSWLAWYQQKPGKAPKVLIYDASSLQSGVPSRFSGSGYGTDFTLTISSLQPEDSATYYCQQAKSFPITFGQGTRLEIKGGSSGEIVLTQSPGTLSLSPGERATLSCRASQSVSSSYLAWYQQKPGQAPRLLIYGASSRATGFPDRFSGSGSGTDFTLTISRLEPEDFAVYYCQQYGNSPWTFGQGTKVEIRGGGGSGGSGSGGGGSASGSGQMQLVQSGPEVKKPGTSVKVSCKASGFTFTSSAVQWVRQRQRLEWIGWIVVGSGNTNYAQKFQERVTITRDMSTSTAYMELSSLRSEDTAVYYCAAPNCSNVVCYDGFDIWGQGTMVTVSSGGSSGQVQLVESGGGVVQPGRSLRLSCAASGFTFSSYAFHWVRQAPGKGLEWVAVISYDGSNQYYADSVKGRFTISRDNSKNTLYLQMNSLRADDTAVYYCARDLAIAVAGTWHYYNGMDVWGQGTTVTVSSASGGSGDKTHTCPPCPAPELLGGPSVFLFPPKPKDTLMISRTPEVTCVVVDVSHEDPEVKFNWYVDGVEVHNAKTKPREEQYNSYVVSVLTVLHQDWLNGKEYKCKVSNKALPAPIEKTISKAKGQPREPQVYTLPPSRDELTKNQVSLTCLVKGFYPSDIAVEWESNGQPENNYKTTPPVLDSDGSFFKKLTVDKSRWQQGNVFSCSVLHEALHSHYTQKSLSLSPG
Sequence of MX492 (A19-46 x A23-58H/B1-182L) (bispecific antibody) (chain): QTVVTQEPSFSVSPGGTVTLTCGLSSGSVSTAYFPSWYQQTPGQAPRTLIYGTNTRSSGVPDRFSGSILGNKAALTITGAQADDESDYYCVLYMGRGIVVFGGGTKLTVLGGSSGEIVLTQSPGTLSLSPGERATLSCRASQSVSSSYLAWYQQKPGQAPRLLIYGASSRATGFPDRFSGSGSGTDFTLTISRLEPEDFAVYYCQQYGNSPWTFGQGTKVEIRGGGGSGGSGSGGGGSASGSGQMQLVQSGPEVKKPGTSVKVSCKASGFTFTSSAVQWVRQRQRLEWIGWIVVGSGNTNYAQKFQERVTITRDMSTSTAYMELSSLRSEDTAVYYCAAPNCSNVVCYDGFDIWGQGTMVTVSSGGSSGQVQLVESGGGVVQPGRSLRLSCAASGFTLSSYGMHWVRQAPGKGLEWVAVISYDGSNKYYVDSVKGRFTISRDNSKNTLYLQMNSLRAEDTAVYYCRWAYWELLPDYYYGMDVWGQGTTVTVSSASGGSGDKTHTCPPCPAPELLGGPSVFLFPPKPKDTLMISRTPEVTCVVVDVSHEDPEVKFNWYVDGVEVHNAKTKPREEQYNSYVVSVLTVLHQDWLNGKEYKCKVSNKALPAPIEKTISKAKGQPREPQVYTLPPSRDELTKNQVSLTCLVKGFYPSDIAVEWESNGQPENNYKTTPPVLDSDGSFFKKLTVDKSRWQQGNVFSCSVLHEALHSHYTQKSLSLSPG
Sequence of A19-46 mAb (antibody) (VH): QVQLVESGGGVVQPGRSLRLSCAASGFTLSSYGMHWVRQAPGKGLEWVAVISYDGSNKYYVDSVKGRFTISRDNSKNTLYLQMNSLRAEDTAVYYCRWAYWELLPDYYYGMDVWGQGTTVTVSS
Sequence of A19-46 mAb (antibody) (VL): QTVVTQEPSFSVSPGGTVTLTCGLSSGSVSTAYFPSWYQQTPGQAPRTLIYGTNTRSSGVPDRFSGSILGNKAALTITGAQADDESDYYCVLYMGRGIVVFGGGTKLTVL
Sequence of MX183 (A19-61 × B1-182) (bispecific antibody) (chain): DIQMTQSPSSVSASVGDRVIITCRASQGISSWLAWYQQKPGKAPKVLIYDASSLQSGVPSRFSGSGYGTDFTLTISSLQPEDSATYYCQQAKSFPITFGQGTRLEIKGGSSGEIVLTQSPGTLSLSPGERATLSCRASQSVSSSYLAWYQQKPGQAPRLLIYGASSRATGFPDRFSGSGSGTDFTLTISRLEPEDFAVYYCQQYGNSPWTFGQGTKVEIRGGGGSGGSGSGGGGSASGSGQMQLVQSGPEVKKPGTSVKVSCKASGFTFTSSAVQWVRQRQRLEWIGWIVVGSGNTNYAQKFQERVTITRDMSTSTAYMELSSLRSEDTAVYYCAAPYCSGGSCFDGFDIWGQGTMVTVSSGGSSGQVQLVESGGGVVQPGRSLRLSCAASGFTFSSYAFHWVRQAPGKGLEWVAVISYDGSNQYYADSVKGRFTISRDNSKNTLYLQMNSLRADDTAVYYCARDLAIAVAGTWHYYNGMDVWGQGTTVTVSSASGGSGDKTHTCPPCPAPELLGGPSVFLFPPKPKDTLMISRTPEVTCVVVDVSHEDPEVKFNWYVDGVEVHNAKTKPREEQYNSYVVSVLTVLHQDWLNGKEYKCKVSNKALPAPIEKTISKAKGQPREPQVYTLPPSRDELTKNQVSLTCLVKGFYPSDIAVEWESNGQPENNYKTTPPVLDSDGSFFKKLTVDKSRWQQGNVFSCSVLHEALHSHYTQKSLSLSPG

MX500 (A19-46 × A23-58H/B1-182L/A23-58H/B1-182L × A19-61)
IC50, pseudovirus neutralization [1]: 0.0151 nM
IC80, pseudovirus neutralization [1]: 0.0503 nM
IC50, pseudovirus neutralization [2]: 0.0655 nM
IC80, pseudovirus neutralization [2]: 0.145 nM
IC50, pseudovirus neutralization [3]: 0.0639 nM
IC80, pseudovirus neutralization [3]: 0.204 nM
IC50, pseudovirus neutralization [4]: > 10000 nM
IC80, pseudovirus neutralization [4]: > 10000 nM
IC50, pseudovirus neutralization [5]: > 10000 nM
IC80, pseudovirus neutralization [5]: > 10000 nM
IC50, pseudovirus neutralization [6]: > 10000 nM
IC80, pseudovirus neutralization [6]: > 10000 nM
IC50, pseudovirus neutralization [7]: 45.1 nM
IC80, pseudovirus neutralization [7]: 83.4 nM
IC50, pseudovirus neutralization [8]: > 10000 nM
IC80, pseudovirus neutralization [8]: > 10000 nM

S2E12 (antibody)
IC50, pseudovirus neutralization [9]: 8.8 nM
IC80, pseudovirus neutralization [9]: 38.5 nM

A23-58.1 (antibody)
IC50, pseudovirus neutralization [9]: 98.1 nM
IC80, pseudovirus neutralization [9]: 782 nM

A23_58.1 (antibody)
pseudovirus neutralization IC50 (nM (inferred)) [10]: 0.124
pseudovirus neutralization IC80 (nM (inferred)) [10]: 0.26
IC50, pseudovirus neutralization [11]: 0.0329 nM
IC80, pseudovirus neutralization [11]: 0.104 nM
pseudovirus neutralization IC50 (nM (inferred)) [12]: > 66.7
pseudovirus neutralization IC80 (nM (inferred)) [12]: > 66.7
IC50, pseudovirus neutralization [13]: 0.0097 nM
IC80, pseudovirus neutralization [13]: 0.0437 nM
pseudovirus neutralization IC50 (nM (inferred)) [1]: 1.72
pseudovirus neutralization IC80 (nM (inferred)) [1]: 6.12
pseudovirus neutralization IC50 (nM (inferred)) [2]: 0.647
pseudovirus neutralization IC80 (nM (inferred)) [2]: 4.96
IC50, pseudovirus neutralization [14]: 0.123 nM
IC80, pseudovirus neutralization [14]: 0.339 nM
pseudovirus neutralization IC50 (nM (inferred)) [15]: 0.0287
pseudovirus neutralization IC80 (nM (inferred)) [15]: 0.0656
pseudovirus neutralization IC50 (nM (inferred)) [3]: 0.853
pseudovirus neutralization IC80 (nM (inferred)) [3]: 4.24
IC50, pseudovirus neutralization [16]: 0.0133 nM
IC80, pseudovirus neutralization [16]: 0.0358 nM

A19-61 mAb (antibody)
IC50, pseudovirus neutralization [17]: 0.0418 nM
IC80, pseudovirus neutralization [17]: 0.0836 nM
IC50, pseudovirus neutralization [18]: 0.0686 nM
IC80, pseudovirus neutralization [18]: 0.113 nM
IC50, pseudovirus neutralization [11]: 0.175 nM
IC80, pseudovirus neutralization [11]: 0.325 nM
IC50, pseudovirus neutralization [13]: 0.135 nM
IC80, pseudovirus neutralization [13]: 0.288 nM
IC50, pseudovirus neutralization [1]: 0.725 nM
IC80, pseudovirus neutralization [1]: 2.24 nM
IC50, pseudovirus neutralization [2]: 0.11 nM
IC80, pseudovirus neutralization [2]: 0.298 nM
IC50, pseudovirus neutralization [19]: 0.264 nM
IC80, pseudovirus neutralization [19]: 0.43 nM
IC50, pseudovirus neutralization [3]: > 66.7 nM
IC80, pseudovirus neutralization [3]: > 66.7 nM
IC50, pseudovirus neutralization [16]: 0.209 nM
IC80, pseudovirus neutralization [16]: 0.292 nM
IC50, pseudovirus neutralization [20]: 0.0557 nM
IC80, pseudovirus neutralization [20]: 0.121 nM
IC50, pseudovirus neutralization [21]: 0.0815 nM
IC80, pseudovirus neutralization [21]: 0.173 nM
IC50, pseudovirus neutralization [22]: 0.11 nM
IC80, pseudovirus neutralization [22]: 0.186 nM
IC50, pseudovirus neutralization [23]: 8.43 nM
IC80, pseudovirus neutralization [23]: > 66.7 nM

MX492 (A19-46 x A23-58H/B1-182L) (bispecific antibody)
IC50, pseudovirus neutralization [24]: 13.3 nM
IC80, pseudovirus neutralization [24]: 154 nM
IC50, pseudovirus neutralization [25]: > 10000 nM
IC80, pseudovirus neutralization [25]: > 10000 nM
IC50, pseudovirus neutralization [26]: 21.4 nM
IC80, pseudovirus neutralization [26]: 24.5 nM
IC50, pseudovirus neutralization [27]: > 10000 nM
IC80, pseudovirus neutralization [27]: > 10000 nM
IC50, pseudovirus neutralization [28]: > 10000 nM
IC80, pseudovirus neutralization [28]: > 10000 nM
IC50, pseudovirus neutralization [29]: 8.77 nM
IC80, pseudovirus neutralization [29]: 68 nM

MX183 (A19-61 × B1-182) (bispecific antibody)
IC50, pseudovirus neutralization [18]: 1.02 nM
IC80, pseudovirus neutralization [18]: 1.65 nM
IC50, pseudovirus neutralization [11]: 0.803 nM
IC80, pseudovirus neutralization [11]: 5.66 nM
IC50, pseudovirus neutralization [13]: 0.43 nM
IC80, pseudovirus neutralization [13]: 2.27 nM
IC50, pseudovirus neutralization [3]: > 66.7 nM
IC80, pseudovirus neutralization [3]: > 66.7 nM
IC50, pseudovirus neutralization [16]: 0.23 nM
IC80, pseudovirus neutralization [16]: 0.948 nM
IC50, pseudovirus neutralization [20]: 0.542 nM
IC80, pseudovirus neutralization [20]: 1.04 nM

MX501 (A19-46 × A23-58H/B1-182L/A19-61 × A23-58H/B1-182L)
IC50, pseudovirus neutralization [1]: 0.0097 nM
IC80, pseudovirus neutralization [1]: 0.025 nM
IC50, pseudovirus neutralization [2]: 0.0405 nM
IC80, pseudovirus neutralization [2]: 0.0927 nM
IC50, pseudovirus neutralization [3]: 0.0285 nM
IC80, pseudovirus neutralization [3]: 0.0876 nM
IC50, pseudovirus neutralization [4]: > 10000 nM
IC80, pseudovirus neutralization [4]: > 10000 nM
IC50, pseudovirus neutralization [5]: > 10000 nM
IC80, pseudovirus neutralization [5]: > 10000 nM
IC50, pseudovirus neutralization [6]: > 10000 nM
IC80, pseudovirus neutralization [6]: > 10000 nM
IC50, pseudovirus neutralization [7]: 20.5 nM
IC80, pseudovirus neutralization [7]: 77.2 nM
IC50, pseudovirus neutralization [8]: > 10000 nM
IC80, pseudovirus neutralization [8]: > 10000 nM

A19-46 mAb (antibody)
IC50, pseudovirus neutralization [17]: 0.803 nM
IC80, pseudovirus neutralization [17]: 1.88 nM
IC50, pseudovirus neutralization [18]: 0.807 nM
IC80, pseudovirus neutralization [18]: 2.07 nM
IC50, pseudovirus neutralization [11]: 0.19 nM
IC80, pseudovirus neutralization [11]: 0.486 nM
IC50, pseudovirus neutralization [13]: 0.26 nM
IC80, pseudovirus neutralization [13]: 0.7 nM
IC50, pseudovirus neutralization [1]: 0.0645 nM
IC80, pseudovirus neutralization [1]: 0.177 nM
IC50, pseudovirus neutralization [2]: > 66.7 nM
IC80, pseudovirus neutralization [2]: > 66.7 nM
IC50, pseudovirus neutralization [19]: 1.34 nM
IC80, pseudovirus neutralization [19]: 3.81 nM
IC50, pseudovirus neutralization [3]: 0.958 nM
IC80, pseudovirus neutralization [3]: 2.28 nM
IC50, pseudovirus neutralization [16]: > 66.7 nM
IC80, pseudovirus neutralization [16]: > 66.7 nM
IC50, pseudovirus neutralization [20]: > 66.7 nM
IC80, pseudovirus neutralization [20]: > 66.7 nM
IC50, pseudovirus neutralization [21]: > 66.7 nM
IC80, pseudovirus neutralization [21]: > 66.7 nM
IC50, pseudovirus neutralization [22]: > 66.7 nM
IC80, pseudovirus neutralization [22]: > 66.7 nM
IC50, pseudovirus neutralization [23]: 11.6 nM
IC80, pseudovirus neutralization [23]: 21 nM

MX413 (A19-61 x A23-58H/B1-182L) (bispecific antibody)
IC50, pseudovirus neutralization [24]: 77.9 nM
IC80, pseudovirus neutralization [24]: 126 nM
IC50, pseudovirus neutralization [25]: 10 nM
IC80, pseudovirus neutralization [25]: 25 nM
IC50, pseudovirus neutralization [26]: 56 nM
IC80, pseudovirus neutralization [26]: 155 nM
IC50, pseudovirus neutralization [27]: > 10000 nM
IC80, pseudovirus neutralization [27]: > 10000 nM
IC50, pseudovirus neutralization [28]: 28.1 nM
IC80, pseudovirus neutralization [28]: 177 nM
IC50, pseudovirus neutralization [29]: 2.24 nM
IC80, pseudovirus neutralization [29]: 10.5 nM

B1-182 mAb (antibody)
IC50, pseudovirus neutralization [17]: 0.0639 nM
IC80, pseudovirus neutralization [17]: 0.183 nM
IC50, pseudovirus neutralization [18]: 0.0357 nM
IC80, pseudovirus neutralization [18]: 0.139 nM
IC50, pseudovirus neutralization [11]: 0.0262 nM
IC80, pseudovirus neutralization [11]: 0.0844 nM
IC50, pseudovirus neutralization [13]: 0.0182 nM
IC80, pseudovirus neutralization [13]: 0.0429 nM
IC50, pseudovirus neutralization [1]: 2.34 nM
IC80, pseudovirus neutralization [1]: 8.19 nM
IC50, pseudovirus neutralization [2]: 0.739 nM
IC80, pseudovirus neutralization [2]: 5.92 nM
IC50, pseudovirus neutralization [19]: 0.0695 nM
IC80, pseudovirus neutralization [19]: 0.219 nM
IC50, pseudovirus neutralization [3]: 1.03 nM
IC80, pseudovirus neutralization [3]: 4.44 nM
IC50, pseudovirus neutralization [16]: 0.0099 nM
IC80, pseudovirus neutralization [16]: 0.0254 nM
IC50, pseudovirus neutralization [20]: 0.008 nM
IC80, pseudovirus neutralization [20]: 0.0192 nM
IC50, pseudovirus neutralization [21]: 0.0261 nM
IC80, pseudovirus neutralization [21]: 0.086 nM
IC50, pseudovirus neutralization [22]: 0.0049 nM
IC80, pseudovirus neutralization [22]: 0.015 nM
IC50, pseudovirus neutralization [23]: 0.0549 nM
IC80, pseudovirus neutralization [23]: 0.11 nM
